Assay results reported in article doi:10.1101/2021.01.30.428887.
Read-outs that look alike come from different tables or passages of the source.

Legend:
Assay in all cases: quadruple optical trap force measurement
[1] = target: Human vimentin C328N with three additional amino acids, GGC, at the C-terminus (human)
[2] = target: Human vimentin C328N with three additional amino acids, GGC, at the C-terminus (human); remark: listed apart in the source
[3] = target: Human vimentin C328N with three additional amino acids, GGC, at the C-terminus (human); remark: listed apart in the source
[4] = target: Human vimentin C328N with three additional amino acids, GGC, at the C-terminus (human); remark: listed apart in the source
[5] = target: Human vimentin C328N with three additional amino acids, GGC, at the C-terminus (human); remark: listed apart in the source
[6] = target: Human vimentin C328N with three additional amino acids, GGC, at the C-terminus (human); remark: listed apart in the source
[7] = target: Human vimentin C328N with three additional amino acids, GGC, at the C-terminus (human); remark: listed apart in the source

koff [1]: 0.2 s⁻¹
koff [2]: 0.08 s⁻¹
maximal interaction (rupture) force [3]: 85 pN
koff [4]: 0.18 s⁻¹
maximal interaction (rupture) force [4]: 112 pN
koff [5]: 0.15 s⁻¹
koff [6]: 0.1 s⁻¹
maximal interaction (rupture) force [7]: 57 pN
Substance: Human vimentin C328N with three additional amino acids, GGC, at the C-terminus (natural protein)
